# Measured values taken from IntAct's records for PubMed 28838205.
# B1: WW domain-binding protein 4 (Homo sapiens), O75554 (parent)
# chain: MADYWKSQPKKFCDYCKCWIADNRPSVEFHERGKNHKENVAKRISEIKQKSLDKAKEEEKASKEFAAMEAAALKAYQEDLKRLGLESEILEPSITPVTSTIPPTSTSNQQKEKKEKKKRKKDPSKGRWVEGITSEGYHYYYDLISGASQWEKPEGFQGDLKKTAVKTVWVEGLSEDGFTYYYNTETGESRWEKPDDFIPHTSDLPSSKVNENSLGTLDESKSSDSHSDSDGEQEAEEGGVSTETEKPKIKFKEKNKNSDGGSDPETQKEKSIQKQNSLGSNEEKSKTLKKSNPYGEWQEIKQEVESHEEVDLELPSTENEYVSTSEADGGGEPKVVFKEKTVTSLGVMADGVAPVFKKRRTENGKSRNLRQRGDDQ
# partner: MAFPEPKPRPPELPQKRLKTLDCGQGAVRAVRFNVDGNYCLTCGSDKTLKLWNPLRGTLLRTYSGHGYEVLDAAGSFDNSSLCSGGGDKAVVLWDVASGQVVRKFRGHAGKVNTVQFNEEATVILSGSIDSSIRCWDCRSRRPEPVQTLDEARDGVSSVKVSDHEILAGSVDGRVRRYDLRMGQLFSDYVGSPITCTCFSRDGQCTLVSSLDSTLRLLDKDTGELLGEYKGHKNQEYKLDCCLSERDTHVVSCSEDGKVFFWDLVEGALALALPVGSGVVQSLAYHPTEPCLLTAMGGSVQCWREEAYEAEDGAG
# B2: WW domain-binding protein 4 (Homo sapiens), O75554 (parent)
# chain: B1 chain
# B3: WW domain-binding protein 4 (Homo sapiens), O75554 (parent)
# chain: B1 chain
# partner: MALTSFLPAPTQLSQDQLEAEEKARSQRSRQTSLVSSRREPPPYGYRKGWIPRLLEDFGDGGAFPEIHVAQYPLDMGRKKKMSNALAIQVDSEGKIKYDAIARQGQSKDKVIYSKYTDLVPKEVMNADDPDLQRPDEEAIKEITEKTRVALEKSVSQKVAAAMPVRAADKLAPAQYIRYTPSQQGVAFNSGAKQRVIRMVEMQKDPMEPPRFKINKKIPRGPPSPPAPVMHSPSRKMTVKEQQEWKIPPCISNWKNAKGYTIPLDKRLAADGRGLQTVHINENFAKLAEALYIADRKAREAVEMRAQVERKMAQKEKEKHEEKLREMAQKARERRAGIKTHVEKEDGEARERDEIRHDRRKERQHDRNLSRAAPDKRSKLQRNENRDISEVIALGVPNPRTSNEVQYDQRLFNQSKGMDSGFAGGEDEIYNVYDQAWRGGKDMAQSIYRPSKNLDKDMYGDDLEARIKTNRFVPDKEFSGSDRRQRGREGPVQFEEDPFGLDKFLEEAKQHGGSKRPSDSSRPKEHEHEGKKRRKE
# B4: WW domain-binding protein 4 (Homo sapiens), O75554 (parent)
# chain: B1 chain
# partner: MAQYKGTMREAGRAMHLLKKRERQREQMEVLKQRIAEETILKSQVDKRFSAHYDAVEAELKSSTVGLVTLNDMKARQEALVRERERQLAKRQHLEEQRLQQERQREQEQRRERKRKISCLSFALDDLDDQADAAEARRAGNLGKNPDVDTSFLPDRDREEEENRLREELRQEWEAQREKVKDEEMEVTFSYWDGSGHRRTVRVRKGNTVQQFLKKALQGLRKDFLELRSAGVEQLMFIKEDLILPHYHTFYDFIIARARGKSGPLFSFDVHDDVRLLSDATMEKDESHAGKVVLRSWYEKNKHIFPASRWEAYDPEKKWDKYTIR
# Variants of: B1
# Details: with wdr83_human WDR83, Q9BRX9
row,effect of a mutation on the interaction,Variant
1,with no effect,W150A

# Variants of: B2
# Details: with u520_human SNRNP200, O75643
# u520_human SNRNP200, O75643, sequence (O75643 whole entry): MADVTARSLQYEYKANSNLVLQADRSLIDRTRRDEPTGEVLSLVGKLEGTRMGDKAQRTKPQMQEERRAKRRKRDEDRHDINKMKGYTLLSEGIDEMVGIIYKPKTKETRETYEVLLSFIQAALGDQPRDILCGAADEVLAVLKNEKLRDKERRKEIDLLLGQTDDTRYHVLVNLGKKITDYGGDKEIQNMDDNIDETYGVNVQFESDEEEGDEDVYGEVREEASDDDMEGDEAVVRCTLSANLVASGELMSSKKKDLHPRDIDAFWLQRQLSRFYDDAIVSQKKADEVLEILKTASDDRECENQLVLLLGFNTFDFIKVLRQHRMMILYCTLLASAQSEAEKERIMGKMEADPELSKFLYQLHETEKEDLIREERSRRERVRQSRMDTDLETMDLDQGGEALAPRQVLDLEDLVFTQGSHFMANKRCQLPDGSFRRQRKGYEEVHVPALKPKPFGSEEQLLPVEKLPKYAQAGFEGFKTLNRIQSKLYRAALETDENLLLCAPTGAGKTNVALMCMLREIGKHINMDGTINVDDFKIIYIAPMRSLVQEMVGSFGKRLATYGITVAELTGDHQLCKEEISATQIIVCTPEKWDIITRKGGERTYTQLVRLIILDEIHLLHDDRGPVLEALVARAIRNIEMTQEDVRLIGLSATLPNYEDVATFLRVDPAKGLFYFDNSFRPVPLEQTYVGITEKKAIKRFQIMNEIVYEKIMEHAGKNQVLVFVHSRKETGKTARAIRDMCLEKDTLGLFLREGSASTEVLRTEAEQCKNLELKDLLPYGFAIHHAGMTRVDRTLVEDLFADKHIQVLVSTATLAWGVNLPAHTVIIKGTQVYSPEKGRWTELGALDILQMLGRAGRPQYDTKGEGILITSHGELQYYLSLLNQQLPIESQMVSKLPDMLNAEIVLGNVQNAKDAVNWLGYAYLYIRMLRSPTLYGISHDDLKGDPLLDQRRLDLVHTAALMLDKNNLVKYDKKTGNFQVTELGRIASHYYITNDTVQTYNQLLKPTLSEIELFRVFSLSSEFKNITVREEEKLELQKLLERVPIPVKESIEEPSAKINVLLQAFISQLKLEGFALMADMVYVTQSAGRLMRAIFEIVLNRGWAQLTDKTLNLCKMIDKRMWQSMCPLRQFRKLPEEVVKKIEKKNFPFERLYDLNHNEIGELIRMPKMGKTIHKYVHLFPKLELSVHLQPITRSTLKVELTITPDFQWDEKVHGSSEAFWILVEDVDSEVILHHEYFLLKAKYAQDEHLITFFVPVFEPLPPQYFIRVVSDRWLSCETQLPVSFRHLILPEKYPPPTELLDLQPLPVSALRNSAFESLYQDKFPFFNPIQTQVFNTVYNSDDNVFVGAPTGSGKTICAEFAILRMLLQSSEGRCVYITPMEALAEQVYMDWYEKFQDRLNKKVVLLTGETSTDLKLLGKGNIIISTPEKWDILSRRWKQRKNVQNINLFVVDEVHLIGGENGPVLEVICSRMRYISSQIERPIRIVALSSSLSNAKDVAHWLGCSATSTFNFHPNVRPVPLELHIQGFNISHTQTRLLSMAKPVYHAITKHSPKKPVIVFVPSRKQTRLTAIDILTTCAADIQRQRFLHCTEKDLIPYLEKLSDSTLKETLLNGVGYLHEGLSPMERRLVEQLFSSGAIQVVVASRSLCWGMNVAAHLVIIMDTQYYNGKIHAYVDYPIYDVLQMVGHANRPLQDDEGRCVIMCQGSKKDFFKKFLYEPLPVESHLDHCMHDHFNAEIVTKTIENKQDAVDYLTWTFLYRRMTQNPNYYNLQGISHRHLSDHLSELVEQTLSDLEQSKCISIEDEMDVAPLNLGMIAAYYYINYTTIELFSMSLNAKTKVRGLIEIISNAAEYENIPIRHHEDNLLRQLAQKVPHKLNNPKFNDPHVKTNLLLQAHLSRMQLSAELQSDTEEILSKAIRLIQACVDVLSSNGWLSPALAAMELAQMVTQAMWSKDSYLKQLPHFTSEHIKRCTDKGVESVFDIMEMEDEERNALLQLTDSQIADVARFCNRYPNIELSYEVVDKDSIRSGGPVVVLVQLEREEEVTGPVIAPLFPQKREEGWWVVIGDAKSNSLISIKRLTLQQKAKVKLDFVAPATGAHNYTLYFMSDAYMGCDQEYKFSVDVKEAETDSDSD
row,effect of a mutation on the interaction,Variant
1,with no effect,K357E;R359E

# Variants of: B2
# Details: with u520_human SNRNP200, O75643
# Remark: another data set of the same source
row,effect of a mutation on the interaction,Variant
1,decreasing interaction strength,K357E;R359E
2,decreasing interaction strength,K358A;R360A

# Variants of: B2
# Details: with u520_human SNRNP200, O75643
# Remark: another data set of the same source
row,effect of a mutation on the interaction,Variant
1,with no effect,W150A

# Variants of: B2
# Details: with ppih_human PPIH
row,effect of a mutation on the interaction,Variant
1,with no effect,W150A

# Variants of: B2
# Details: with sf3b2_human SF3B2, Q13435
# sf3b2_human SF3B2, Q13435, sequence (Q13435 whole entry): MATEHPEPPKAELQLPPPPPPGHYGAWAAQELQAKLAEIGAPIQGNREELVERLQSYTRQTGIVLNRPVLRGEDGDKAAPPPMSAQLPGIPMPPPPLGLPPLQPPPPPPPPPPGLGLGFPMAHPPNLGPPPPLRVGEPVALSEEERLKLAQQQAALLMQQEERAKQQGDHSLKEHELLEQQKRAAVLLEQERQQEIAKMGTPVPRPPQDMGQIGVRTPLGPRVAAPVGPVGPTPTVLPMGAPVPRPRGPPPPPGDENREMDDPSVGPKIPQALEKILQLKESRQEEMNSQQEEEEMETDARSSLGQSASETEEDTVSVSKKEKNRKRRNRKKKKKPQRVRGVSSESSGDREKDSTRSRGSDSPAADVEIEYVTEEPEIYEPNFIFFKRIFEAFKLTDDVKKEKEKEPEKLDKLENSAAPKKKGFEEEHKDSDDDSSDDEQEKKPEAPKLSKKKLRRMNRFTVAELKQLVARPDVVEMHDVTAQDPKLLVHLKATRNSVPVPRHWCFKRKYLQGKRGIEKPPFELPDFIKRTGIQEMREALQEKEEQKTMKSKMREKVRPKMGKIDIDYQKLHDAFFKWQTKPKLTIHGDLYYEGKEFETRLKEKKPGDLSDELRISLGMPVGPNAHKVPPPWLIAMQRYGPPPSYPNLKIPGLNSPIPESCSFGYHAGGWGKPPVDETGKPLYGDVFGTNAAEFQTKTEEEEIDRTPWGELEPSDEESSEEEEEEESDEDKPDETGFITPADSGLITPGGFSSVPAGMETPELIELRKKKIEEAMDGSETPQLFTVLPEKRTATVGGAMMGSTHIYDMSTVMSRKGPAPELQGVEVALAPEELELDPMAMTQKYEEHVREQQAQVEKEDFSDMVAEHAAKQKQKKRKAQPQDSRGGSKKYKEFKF
row,effect of a mutation on the interaction,Variant
1,with no effect,W150A

# Variants of: B2
# Details: with zc21a_human ZC2HC1A
row,effect of a mutation on the interaction,Variant
1,with no effect,W150A

# Variants of: B3
# Details: with snw1_human SNW1, Q13573
row,effect of a mutation on the interaction,Variant
1,with no effect,W150A

# Variants of: B4
# Details: with fa50b_human FAM50B
row,effect of a mutation on the interaction,Variant
1,with no effect,W150A
